This passage reports EC50 results from article PMC10285447.

As usually defined, the EC50 is the concentration that produces a half-maximal response. Low readings indicate an effect from little substance, high ones a need for much substance.

Assay [1] deals with H4-IgM-P (pentameric H4 IgM) (human) (UniProt P01591). The assay can be described thus: ELISA. For orientation: ELISA stands for enzyme-linked immunosorbent assay.
Assay [2] has as its target P5C3-IgM-P (pentameric P5C3 IgM) (human) (UniProt P01591). The assay can be described thus: ELISA; […] (from 500 ng/mL with P5C3, […].

For the substance “SARS-CoV-2 spike protein RBD (Wuhan strain), recombinant (from UniProt P0DTC2 319-541) (domain or fragment)”, the EC50 in assay [1] amounted to 169 pM; in assay [2], 16 pM.
